# Measured values as given in patent publication US20220112296A1 (Chugai, published 2022).
# Where a chain is given by its changes, count along the chain named. Values joined by “and” are separate entries in the source; they are usually repeats but may differ in a detail not shown here. Equal entries are not always repeated.
# T1: Human CD3eg linker (human)
# T1 construct: CD3 epsilon and gamma subunits joined by a 29-mer linker, C-terminal Flag-tag (in the entry); also called recombinant human CD3
# T1 chain: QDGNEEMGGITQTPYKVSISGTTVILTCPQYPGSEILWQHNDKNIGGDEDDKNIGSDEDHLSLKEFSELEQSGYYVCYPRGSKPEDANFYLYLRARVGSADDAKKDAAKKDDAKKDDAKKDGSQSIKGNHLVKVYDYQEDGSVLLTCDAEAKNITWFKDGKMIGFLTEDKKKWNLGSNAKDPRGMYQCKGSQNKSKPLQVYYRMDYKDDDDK
# T2: cyno CD137-Fc (cynomolgus monkey; human, biotin-labeled)
# T2 construct: whole entry named; also called biotin-labeled cynomolgus monkey CD137 fused to human IgG1 Fc fragment; not shown: human IgG1 Fc fragment
# T2 chain: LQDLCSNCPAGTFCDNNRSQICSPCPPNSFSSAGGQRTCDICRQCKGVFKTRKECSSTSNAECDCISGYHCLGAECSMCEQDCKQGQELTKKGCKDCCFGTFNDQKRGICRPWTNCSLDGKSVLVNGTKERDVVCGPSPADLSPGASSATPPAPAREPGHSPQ
# B1: H0868L0581 (antibody, V domains shown)
# VH: QVQLVESGGGLVQPGRSLRLSCAASGFKFSNVWMHWVRQAPGKGLEWVAQIKDKYNAYAAYYAPSVKGRFTISRDDSKNSIYLQMNSLKTEDTAVYYCHYVHYASASTLLPAFGVDAWGQGTTVTVSS
# VL: DIVMTQSPLSLPVTPGEPASISCQPSQEVVHMNRNTYLHWYQQKPGQAPRLLIYKVSNRFPGVPDRFSGSGSGTDFTLKISRVEAEDVGVYYCAQGTSHPFTFGQGTKLEIK
# B2: H1572L0581 (antibody, V domains shown)
# VH: B1 VH with M34F, F113E
# VL: B1 VL
# B3: H1673L0943 (antibody, V domains shown)
# VH: B1 VH with K28V, M34F, Y55W, A60D, G68E, V101I, F113E, V115I
# VL: B1 VL with Q27E, R59L, S98H
# B4: H1579L0581 (antibody, V domains shown)
# VH: B1 VH with N31H, M34F
# VL: B1 VL
# B5: H1573L0581 (antibody, V domains shown)
# VH: B1 VH with M34F, K54Y
# VL: B1 VL
# B6: H0888L0581 (antibody, V domains shown)
# VH: B1 VH with Y55W, V101I, V115I
# VL: B1 VL
# notes: Dual-Ig, captured by anti-human Fc; also called dBBDu183H0888/dBBDu072L0581
# B7: H1595L0581 (antibody, V domains shown)
# VH: B1 VH with V32T, V101I
# VL: B1 VL
# B8: H1643L0581 (antibody, V domains shown)
# VH: B1 VH with M34F, K54Y, F113E
# VL: B1 VL
# notes: also called H1643L581; Dual
# B9: H1571L0581 (antibody, V domains shown)
# VH: B1 VH with M34F, A60T
# VL: B1 VL
# B10: H0883 (antibody, V domains shown)
# VH: B1 VH with K28T, V32A, Y55G, H99R
# VL: B1 VL with P25A, V29L, H99V
# notes: also called H0883 (CD3); H883
# B11: H1647L0581 (antibody, V domains shown)
# VH: B1 VH with V32T, M34F, K54Y, A57D, F113E
# VL: B1 VL
# notes: also called H1647L0581 (CD137); Anti-CD137 variant
# B12: GPC3 ERY22-dBBDu_167/L091 (bispecific antibody, human IgG1, kappa, L234A L235A, N297A)
# heavy 1: DIVMTQSPLSLPVTPGEPASISCRSSQSLVHSNRNTYLHWYQQKPGQAPRLLIYKVSNRFSGVPDRFSGSGSGTDFTLKISRVEAEDVGVYYCSQNTHVPPTFGQGTKLEIKSSASTKGPSVFPLAPSSKSTSGGTAALGCLVKDYFPEPVTVSWNSGALTSGVHTFPAVLQSSGLYSLSSVVTVPSSSLGTQTYICNVNHKPSNTKVDKKVEPKSCDKTHTCPPCPAPEAAGGPSVFLFPPKPKDTLMISRTPEVTCVVVDVSHEDPEVKFNWYVDGVEVHNAKTKPREEQYASTYRVVSVLTVLHQDWLNGKEYKCKVSNKALPAPIEKTISKAKGQPREPQVCTLPPSRDELTKNQVSLWCLVKGFYPSDIAVEWESNGQPENNYKTTPPVLDSDGSFFLYSKLTVDKSRWQQGNVFSCSVMHEALHNHYTQKSLSLSPHHHHHHHH
# light 1: QVQLVQSGAEVKKPGASVKVSCKASGYTFTDYEMHWIRQPPGQGLEWIGAIDPKTGDTAYSQKFKGRVTLTADKSTSTAYMELSSLTSEDTAVYYCTRFYSYTYWGQGTLVTVSSASVAAPSVFIFPPSDEQLKSGTASVVCLLNNFYPREAKVQWKVDNALQSGNSQESVTEQDSKDSTYSLSSTLTLSKADYEKHKVYACEVTHQGLSSPVTKSFNRGEC
# heavy 2: QVQLVESGGGLVQPGRSLRLSCAASGFTFSNAWMHWVRQAPGKGLEWVAQIKDKGNLYAAYYAPSVKGRFTISRDDSKNSIYLQMNSLKTEDTAVYYCHYVHYASAGGGLPGFGVDAWGQGTTVTVSSASTKGPSVFPLAPSSKSTSGGTAALGCLVKDYFPEPVTVSWNSGALTSGVHTFPAVLQSSGLYSLSSVVTVPSSSLGTQTYICNVNHKPSNTKVDKKVEPKSCDKTHTCPPCPAPEAAGGPSVFLFPPKPKDTLMISRTPEVTCVVVDVSHEDPEVKFNWYVDGVEVHNAKTKPREEQYASTYRVVSVLTVLHQDWLNGKEYKCKVSNKALPAPIEKTISKAKGQPREPQVYTLPPSRCELTKNQVSLSCAVKGFYPSDIAVEWESNGQPENNYKTTPPVLDSDGSFFLVSKLTVDKSRWQQGNVFSCSVMHEALHNHYTQKSLSLSPDYKDDDDK
# light 2: DIVMTQSPLSLPVTPGEPASISCSASESLLHNNRHTYLHWYQQKPGQAPRLLIYRVSNRFNGVPDRFSGSGSGTDFTLKISRVEAEDVGVYYCGQGTQVPFTFGQGTKLEIKRTVAAPSVFIFPPSDEQLKSGTASVVCLLNNFYPREAKVQWKVDNALQSGNSQESVTEQDSKDSTYSLSSTLTLSKADYEKHKVYACEVTHQGLSSPVTKSFNRGEC
# B13: GPC3 ERY22-dBBDu_189/L116 (bispecific antibody, human IgG1, kappa, L234A L235A, N297A)
# heavy 1: B12 heavy 1
# light 1: B12 light 1
# heavy 2: B12 heavy 2 with V48I, K54R, G55S, L57Q, A60T, S105Q, G107S, G108S, G109L, G112S
# light 2: DIVMTQSPLSLPVTPGEPASISCSSSQELVHANRQIYLHWYQQKPGQAPRLLIYKVANRFPGVPDRFSGSGSGTDFTLKISRVEAEDVGVYYCAQGTQVPFTFGQGTKLEIKRTVAAPSVFIFPPSDEQLKSGTASVVCLLNNFYPREAKVQWKVDNALQSGNSQESVTEQDSKDSTYSLSSTLTLSKADYEKHKVYACEVTHQGLSSPVTKSFNRGEC
# B14: GPC3 ERY22-dBBDu_189/L119 (bispecific antibody, human IgG1, kappa, L234A L235A, N297A)
# heavy 1: B12 heavy 1
# light 1: B12 light 1
# heavy 2: B12 heavy 2 with V48I, K54R, G55S, L57Q, A60T, S105Q, G107S, G108S, G109L, G112S
# light 2: B13 light 2 with S24T, S25A, A32I, Q35F, Y37F, A57S, P61I, T97S
# B15: GPC3 ERY22-dBBDu_186/L106 (bispecific antibody, human IgG1, kappa, L234A L235A, N297A)
# heavy 1: B12 heavy 1
# light 1: B12 light 1
# heavy 2: B12 heavy 2 with K54R, G55S, L57Q, A60T, S105Q, G107S, G108T, G109V, G112A
# light 2: B13 light 2 with S25T, Q27E, V30L, A32I, Q35F, Y37F, P61M, T97S
# B16: GPC3 ERY22-dBBDu_186/L098 (bispecific antibody, human IgG1, kappa, L234A L235A, N297A)
# heavy 1: B12 heavy 1
# light 1: B12 light 1
# heavy 2: B12 heavy 2 with K54R, G55S, L57Q, A60T, S105Q, G107S, G108T, G109V, G112A
# light 2: B13 light 2 with S24A, S25A, Q27E, A32I, Q35Y, Y37F, A57S, P61I, T97S
# B17: GPC3 ERY22-dBBDu_186/L096 (bispecific antibody, human IgG1, kappa, L234A L235A, N297A)
# heavy 1: B12 heavy 1
# light 1: B12 light 1
# heavy 2: B12 heavy 2 with K54R, G55S, L57Q, A60T, S105Q, G107S, G108T, G109V, G112A
# light 2: B13 light 2 with S24R, S25T, A32I, Q35Y, Y37F, A57Y, P61Q, Q98S, F101Y
# B18: DADU01_3#001 (antibody, V domains shown)
# VH: QVQLVESGGGLVQPGRSLRLSCAASGFTFSIAWMHWVRQAPGKGLEWVAQIKDRVNAYEAYYAPSVKGRFTISRDDSKNSIYLQMNSLKTEDTAVYYCRYVHYASYYDLLGYGGVDAWGQGTTVTVSS
# VL: B1 VL with Q24R, P25S, E28S, V29L, M32S, P61S, A94G, S98Q, H99V, F101Y
# notes: also called dBBDu_126; dBBDu126
# B19: CE115HA340 (antibody, human IgG1, L234A L235A, N297A, V domains shown)
# VH: QVQLVESGGGLVQPGRSLRLSCAASGFTFSNAWMHWVRQAPGKGLEWVAQIKDKSNNYATYYAESVKGRFTISRDDSKNSIYLQMNSLKTEDTAVYYCRYVHYAAYYGVDAWGQGTTVTVSS
# VL: B1 VL with Q24R, P25S, E28S, V29L, M32S, P61S, A94G, S98Q, H99V, F101Y
# Molecular target: T1, Human CD3eg linker
# Assay: SPR Biacore T200, 25 C, Ab captured
# Procedure: (§1) Anti-human Fc (GE Healthcare) was immobilized onto all flow cells of a CM4 sensor chip using amine coupling kit (GE Healthcare). […] All antibodies and analytes were prepared in ACES pH 7.4 containing 20 mM ACES, 150 mM NaCl, 0.05% Tween 20, 0.005% NaN3. Sensor surface was regenerated each cycle with 3M MgCl2.
row,Binder,Kd [nM]
1,B1,173
2,B2,286
3,B3,24.6
4,B4,273
5,B5,156
6,B6,20.2
7,B7,57
8,B8,288
9,B9,123
10,B10,110

# Molecular target: T3, Human CD137 ECD (human)
# T3 construct: C-terminal His-tag and biotin acceptor peptide are in the entry; also called human CD137 extracellular domain; recombinant human CD137
# Assay: SPR Biacore T200, 37 C, Ab captured
# Procedure: as §1
# T3 sequence (chain, as listed by the source limits assumed): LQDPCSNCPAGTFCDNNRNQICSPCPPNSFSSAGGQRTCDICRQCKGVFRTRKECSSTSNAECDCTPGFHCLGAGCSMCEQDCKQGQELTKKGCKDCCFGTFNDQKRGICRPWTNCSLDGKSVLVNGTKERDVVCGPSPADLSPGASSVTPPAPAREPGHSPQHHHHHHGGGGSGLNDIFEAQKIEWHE
row,Binder,Kd [nM]
1,B1,108
2,B2,52.1
3,B3,56.5
4,B11,60.5
5,B4,275
6,B5,70.6
7,B6,208
8,B7,195
9,B8,47.9
10,B9,85

# Molecular target: human CD137 (4-1BB) on cells (human, UniProt Q07011 24-255)
# Assay: cell-based or functional assay
# human CD137 (4-1BB) on cells, sequence (Q07011 24-255): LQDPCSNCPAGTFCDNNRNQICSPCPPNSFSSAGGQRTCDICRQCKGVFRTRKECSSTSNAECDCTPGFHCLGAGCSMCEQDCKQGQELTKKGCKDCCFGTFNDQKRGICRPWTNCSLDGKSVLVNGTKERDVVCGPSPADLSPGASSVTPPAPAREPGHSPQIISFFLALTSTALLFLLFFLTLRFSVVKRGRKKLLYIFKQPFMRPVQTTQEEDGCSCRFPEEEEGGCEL
Binder,"Agonistic activity compared to B, 6 ug/mL [%]","Agonistic activity compared to B, 30 ug/mL [%]","Agonistic activity compared to Ctrl, 6 ug/mL [%]","Agonistic activity compared to Ctrl, 30 ug/mL [%]","hIL-6 (pg/mL), 6 ug/mL antibody [pg/mL]","hIL-6 (pg/mL), 30 ug/mL antibody [pg/mL]"
B12,-2.21,1.1,-7.68,4.19,935,944
B13,8.28,19.2,28.7,72.9,1300,1570
B14,6.92,20.4,24,77.3,1260,1610
B15,13.2,19.4,45.8,73.6,1480,1570
B16,13.9,24.6,48.3,93.5,1500,1750
B17,19,24.2,66.1,91.7,1680,1740

# Molecular target: T2, cyno CD137-Fc
# Assay: bead ELISA
row,Binder,binding result
1,B18,no binding

# Molecular target: T4, biotinylated CD3 epsilon epitope peptide
# T4 construct: immobilised on CM5 chip via streptavidin
# Assay: SPR Biacore, method of Ref. Ex. 12.6
row,Binder,Kd
1,B19,20 nM and 27 nM
